Columns and labels:
TACE catalytic domain = TACE catalytic domain (UniProt P78536 215-477, limits assumed); assay: cell-based or functional assay
[1] = molecular target: T1, TACE pro-domain (wild type)
T1 chain: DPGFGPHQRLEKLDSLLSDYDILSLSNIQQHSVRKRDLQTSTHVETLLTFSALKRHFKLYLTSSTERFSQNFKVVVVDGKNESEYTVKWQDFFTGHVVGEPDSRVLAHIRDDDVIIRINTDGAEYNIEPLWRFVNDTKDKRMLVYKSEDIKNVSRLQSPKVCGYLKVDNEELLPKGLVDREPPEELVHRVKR

[2] = molecular target: T2, TACE pro-domain R58A mutant
T2 chain: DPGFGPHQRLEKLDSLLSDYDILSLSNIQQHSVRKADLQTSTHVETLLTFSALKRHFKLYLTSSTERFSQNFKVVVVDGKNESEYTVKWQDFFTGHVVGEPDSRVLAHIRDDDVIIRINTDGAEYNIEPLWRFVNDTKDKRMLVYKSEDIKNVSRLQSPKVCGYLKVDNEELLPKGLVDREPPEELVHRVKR

MMP9 catalytic domain = MMP9 catalytic domain (UniProt P14780 107-444, limits assumed); assay: cell-based or functional assay
MMP9 catalytic domain, sequence (P14780 107-444 limits assumed): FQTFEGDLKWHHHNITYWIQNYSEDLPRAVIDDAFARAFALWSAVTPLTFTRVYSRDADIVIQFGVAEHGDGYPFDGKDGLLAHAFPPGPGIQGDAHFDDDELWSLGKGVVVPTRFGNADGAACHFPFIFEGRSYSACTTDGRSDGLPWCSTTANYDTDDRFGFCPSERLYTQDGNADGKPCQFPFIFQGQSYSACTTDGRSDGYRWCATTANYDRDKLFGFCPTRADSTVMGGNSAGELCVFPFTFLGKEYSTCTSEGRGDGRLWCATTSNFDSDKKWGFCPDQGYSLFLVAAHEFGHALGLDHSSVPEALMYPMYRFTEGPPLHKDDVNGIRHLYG

MMP7 catalytic domain = molecular target: T3, MMP7 catalytic domain (UniProt P09237 95-267); assay: cell-based or functional assay
T3 sequence (looked up): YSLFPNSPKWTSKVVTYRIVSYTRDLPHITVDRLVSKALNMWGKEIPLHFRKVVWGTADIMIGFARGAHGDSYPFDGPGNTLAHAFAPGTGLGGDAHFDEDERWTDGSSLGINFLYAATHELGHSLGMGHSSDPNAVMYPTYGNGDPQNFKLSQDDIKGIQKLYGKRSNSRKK

TACE catalytic domain, sequence (P78536 215-477 limits assumed): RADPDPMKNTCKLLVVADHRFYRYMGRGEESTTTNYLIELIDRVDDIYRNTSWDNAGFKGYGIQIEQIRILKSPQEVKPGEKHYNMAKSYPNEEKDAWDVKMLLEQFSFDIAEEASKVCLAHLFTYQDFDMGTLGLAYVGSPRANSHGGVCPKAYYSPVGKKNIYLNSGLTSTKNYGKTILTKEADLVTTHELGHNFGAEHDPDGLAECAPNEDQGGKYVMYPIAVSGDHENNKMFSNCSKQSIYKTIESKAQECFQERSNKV

| Molecule | IC50, proteolytic activity of TACE (TACE catalytic domain) [nM] | cleavage by Furin (SDS-PAGE) [1] | cleavage by Furin (SDS-PAGE) [2] | IC50, catalytic activity on fluorogenic peptide (TACE catalytic domain) [nM] | IC50, catalytic activity on fluorogenic peptide (MMP9 catalytic domain) [nM] | IC50 relative to the IC50 towards TACE (MMP9 catalytic domain) [fold] | IC50, catalytic activity on fluorogenic peptide (MMP7 catalytic domain) [nM] | IC50 relative to the IC50 towards TACE (MMP7 catalytic domain) [fold] |
| --- | --- | --- | --- | --- | --- | --- | --- | --- |
| TACE pro-domain R58A mutant (from UniProt P78536 23-214) | 55 | – | – | – | – | – | – | – |
| Furin (protein) DVYQEPTDPKFPQQWYLSGVTQRDLNVKAAWAQGYTGHGIVVSILDDGIEKNHPDLAGNYDPGASFDVNDQDPDPQPRYTQMNDNRHGTRCAGEVAAVANNGVCGVGVAYNARIGGVRMLDGEVTDAVEARSLGLNPNHIHIYSASWGPEDDGKTVDGPARLAEEAFFRGVSQGRGGLGSIFVWASGNGGREHDSCNCDGYTNSIYTLSISSATQFGNVPWYSEACSSTLATTYSSGNQNEKQIVTTDLRQKCTESHTGTSASAPLAAGIIALTLEANKNLTWRDMQHLVVQTSKPAHLNANDWATNGVGRKVSHSYGYGLLDAGAMVALAQNWTTVAPQRKCIIDILTEPKDIGKRLEVRKTVTACLGEPNHITRLEHAQARLTLSYNRRGDLAIHLVSPMGTRSTLLAARPHDYSADGFNDWAFMTTHSWDEDPSGEWVLEIENTSEANNYGTLTKFTLVLYGTA | – | Only pro-WT was processed by Furin generating a smaller fragment of ˜17kDa | pro-R58A mutant was not cleaved by Furin | – | – | – | – | – |
| TACE pro-domain (wild type) (other) DPGFGPHQRLEKLDSLLSDYDILSLSNIQQHSVRKRDLQTSTHVETLLTFSALKRHFKLYLTSSTERFSQNFKVVVVDGKNESEYTVKWQDFFTGHVVGEPDSRVLAHIRDDDVIIRINTDGAEYNIEPLWRFVNDTKDKRMLVYKSEDIKNVSRLQSPKVCGYLKVDNEELLPKGLVDREPPEELVHRVKR | 23 | – | – | 119 | 4480 | 40 | 8790 | 80 |
